Experimental data published in patent US20180118848A1 (Regeneron, published 2018).

Columns and labels:
[1] = biological target: T1, human MUC16 (mucin 16) (human); experiment: MSD ECL cell binding, RLU ratio OVCAR-3 vs SK-OV-3, 1.9 nM Ab
T1 construct: Endogenously expressed on human tumour cell lines; also called hMUC16
Description: (§1) The ability of anti-MUC16 antibodies to bind specifically to endogenously expressing MUC16 on the human ovarian carcinoma cell line (OVCAR-3) was evaluated via an electrochemiluminescence based detection assay (Meso Scale Discovery (MSD), Rockville, Md.). […] Detached cells were then washed once in 1×PBS supplemented with Ca²⁺/Mg²⁺ and counted (Cellometer Auto T4 cell counter, Nexcelom Bioscience, Lawrence, Mass.). Approximately 1.0×10⁴ cells were plated in MULTI-ARRAY 96-well carbon electrode plates (MSD) and incubated for 1 h at 37° C. […] Next, serial dilutions of anti-MUC16 or control antibodies (0.85 pM-50 nM) and no-antibody buffer controls were added to the plate-bound cells and incubated for 1 h at room temperature (RT). Plates were then washed to remove the unbound antibodies using an AquaMax2000 plate washer (MDS Analytical Technologies, Sunnyvale, Calif.). Plate-bound antibodies were detected with a SULFO-TAG™-conjugated anti-human kappa light chain antibody (Regeneron) or a SULFO-TAG™-conjugated anti-mouse IgG antibody (Jackson Immunoresearch, West Grove, Pa.) for 1 h at RT. Post-wash, plates were developed with Read Buffer (MSD) according to manufacturer's protocol and luminescent signals were recorded with a SECTOR Imager 6000 (MSD) instrument.
(§2) Luminescence intensity, measured in relative light units (RLU), for the two cell lines was recorded to indicate the binding intensity of each antibody.

[2] = biological target: T1, human MUC16 (mucin 16); experiment: MSD ECL cell binding, RLU ratio OVCAR-3 vs SK-OV-3, 16.7 nM Ab
Description: as §1, §2

Ratio anti-MUC16 Binding OVCAR-3/SK-OV-3 [1] | Ratio anti-MUC16 Binding OVCAR-3/SK-OV-3 [2] | Binder
13 ratio | 5 ratio | H1H8755P (antibody, human IgG1, V domains shown, Human IgG1 (H1H: hIgG1)) VH: EVQLVESGGGLVQPGRSLRLSCAASGFTFNDYAMHWVRQSPGKGLEWVSGIDWNGGSIDYADSVKGRFTISRDTAKNSLYLQMNSLKVEDTALYYCAKDIGHWNYIGGMDVWGQGTTVTVSS VL: DIQMTQSPSSLSASVGDRVTITCRASQSINIYLNWYQQKPGKAPKFLIYAASSLQTGVPSRFSGSGSGTDFTLTISSLEPEDFATYYCQHSYSTPPITFGQGTRLEIK
89 ratio | 26 ratio | H2M9538N (antibody, V domains shown) VH: QVQLQESGPGLVKPSETLSLTCTVSGGSISSYYWSWIRQPPGKGLEWIGYIYYSGSTNYNPSLKSRVTISVDTSKNQFSLKLSSVTAADTAVYYCARKKLVFDYWGQGTLVTVSS VL: not shown
81 ratio | 57 ratio | H3M9524N (antibody, mouse IgG3, V domains shown, Human variable regions, mouse IgG3 constant region) VH: QVQLQQWGAGLLKPSETLSLTCAVYGGSFSDYYWSWIRQPPGKGLEWIGEINHRGKTNYNPSLKSRVSISVDPSKNQFSLKLSSVTAADTAVYYCARQGWNYAIFDYWGQGILVPVSS VL: not shown
137 ratio | 51 ratio | H3M9525N (antibody, mouse IgG3, V domains shown, Human variable regions, mouse IgG3 constant region) VH: QVQLQQWGAGLLKPSETLSLTCAVYGGSFSGYYWSWIRQPPGKGLEWIGEINHSGKTTYSPSLKSRVTISVDTSKSQFSLKLSSVTAADTAVYYCARQGLNYAIFDYWGQGTLVTVSS VL: not shown
82 ratio | 50 ratio | H2M7138N (antibody, mouse IgG2, V domains shown, Human variable regions, mouse IgG2 constant region; also called H2aM7138N) VH: QVQLVQSGAEVKKPGASVKVSCKASGYTFTSSDINWVRQATGQGLEWVGWMNPNYGYTGSARKFQDRVTMTRNTSLSTAYLELHSLRSEDTAVYYCARVTYCSSVTSCFRPFTYWGQGTLVTVSA VL: not shown
143 ratio | 99 ratio | H3M9529N (antibody, mouse IgG3, V domains shown, Human variable regions, mouse IgG3 constant region) VH: QVQLQQWGAGLLKPSETLSLTCAVYGGSFSGFYWSWIRQPPGKGLEWIGEINHSGSAKYNPSLKNRVIISIDTSKNQFSLKLDSVTAADTAVYNCARQGWNFAIFDYWGQGTLVDVSS VL: DIVMTQSPDSLAVSLGGRATINCKSSQSVLHSSYNKDHLAWYQQRPGQPPKLLIYWASTRESGVPDRFSGSGSGTDFTLTISSLQAEDVAVYYCQQYNILPPTFGQGTRVEIK
30 ratio | 5 ratio | H2M7135N (antibody, mouse IgG2, V domains shown, Human variable regions, mouse IgG2 constant region) VH: EVQLVESGGGLVQAGGSLRLSCAASGFTFSYHEMNWVRQAPGKGLEWVSYIGSRGTTKHYADPVKGRFTISRDNAKNSLYLQMNSLRAEDTAVYYCASEVGSILGYSMDVWGQGTTVTVSS VL: DIQMTQSPSSLSASVGDRVTITCRASQSVSRYLNWCQQKPGKAPKLLTYAASSLQSGVPSRFSGSGSGTDFTLTISSLQPEDFAAYFCQQSYSTPPITFGQGTRLEIK
153 ratio | 120 ratio | H1M9528N (antibody, mouse IgG1, V domains shown, Human variable regions, mouse IgG1 constant region) VH: QMQLQESGPGLVKPSETLSLTCTVSGGSISSYYWNWIRQPPGKGLEWIGYIYYSGNNFNPSLKSRVTISVDTSKNQFSLKLSSVTAADTAVYYCARAFHWNYEFDYWGQGTLVTVSS VL: EIVLTQSPGTLSLSPGERATLSCRASQSVSNNYLAWYQQKPGQAPRLLLYGASSRTTDIPDRFSGSGSGTDFTLTISRLEPEDFAVYYCQQYDNSPLTFGGGTKVEIR
77 ratio | 29 ratio | H1M7137N (antibody, mouse IgG1, V domains shown, Human variable regions, mouse IgG1 constant region) VH: QVQLQESGPGLVKPSETLSLTCTVSGGAINTYYWSWIRQPPGKGLEWIGYIYYRGNTNYNPSLRSRVTISVDTSKNQFFLKLRSVTVADSAVYFCARGWNYRAEYFQHWGQGTVVTVSS VL: not shown
